According to patent US11324804B2, “Combined CD6 and imipenem therapy for treatment of infectious diseases and related inflammatory processes” (Sepsia Therapeutics, S.L., priority 2016, dated 2022):

Columns and labels:
[1] = design: species or system C57BL/6J mice; details: mouse, in vivo, 1.25 mg/kg
Protocol: (§1) Plasma levels of rshCD6 were determined by sandwich ELISA, using unlabelled (161.8) and biotin-labelled (SPV-L14.2) anti-CD6 monoclonal antibodies (2 μg/mL, each) as capture and detection antisera, respectively. Serial dilutions of purified rshCD6 were used as a standard. Diluted or undiluted plasma samples were used for monitoring IL-6 (1:70; Mouse IL-6 ELISA Set, BD Bioscience-555240), TNF-α (1:10; Mouse TNF-α ELISA Set, BD Bioscience-558534), IL-10 (neat; Mouse IL-10 ELISA Set, BD Bioscience-555252), and IL-1β (neat; Mouse IL-1β ELISA Set, BD Bioscience-559603) levels by commercially available ELISA kits, following manufacturer's instructions. Plates were developed with horseradish peroxidase-labeled streptavidin (Roche Diagnostics) and TMB Substrate Reagent Set (BD OptEIA, BD Biosciences), and further measurement of optical density at 450 nm (OD450 nm).

[2] = test system: septic shock induced by G+ and G− bacterial endotoxins (LTA+PGN, and LPS) and whole alive bacteria (Staphylococcus aureus, Acinetobacter baumannii); details: prophylactic infusion; mouse models of septic shock; cited from earlier work
bacterial load = experiment: Bacterial load (cfu) post CLP-induced septic shock; assay type: in vivo, C57BL/6J mice
Protocol: Blood samples were taken from live mice by facial vein puncture at 4 h post-CLP. Peritoneal, spleen and kidney samples were obtained from euthanized mice at 20 h post-CLP. For peritoneal lavage, euthanized mice were i.p. infused with 3 mL cold PBS. After gently abdominal massaging for 5 min, the peritoneal fluid was collected taking care to avoid clogging by the fat tissue and not to damage internal organs. Blood-contaminated peritoneal samples were discarded. The collected peritoneal fluid was centrifuged (3500 rpm, 10 min at 4° C.) and the pellet resuspended in 200 μL PBS. Spleen (100 mg) and kidney (250 mg) homogenization was performed by pressing the organs with a syringe plunger through a 40 μm cell strainer in 3 mL cold PBS. The resulting homogenates were centrifuged (3500 rpm, 10 min at 4° C.) and pellets resuspended in 750 μL PBS. Serial dilutions of blood, peritoneal lavage, and spleen and kidney homogenates were prepared in sterile PBS for plating on agar with 5% sheep blood (Becton Dikinson, UK) at 37° C. overnight. Viable bacterial counts were expressed as colony-forming units (cfu) per mL or mg.

[3] = test system: pro- (TNF-α, IL-1β, IL-6) and anti- (IL-10) inflammatory cytokines; experiment: ELISA of cytokine plasma levels post CLP-induced septic shock; assay type: in vivo, C57BL/6J mice
Protocol: as §1

LPS-induced septic shock = details: intraperitoneal (i.p.) administration, mice; cited from earlier work
[4] = test system: CLP-induced polymicrobial septic shock; experiment: Mouse survival after cecal ligation and puncture (CLP)-induced septic shock
Protocol: CLP-induced septic shock was induced in 8-10 week old C57BL/6J male mice (20-25 g; Charles River) following previously reported methods (Rittirsch D, et al., 2009. Immunodesign of experimental sepsis by cecal ligation and puncture. Nat Protoc 4:31-36). The severity of the CLP model was adjusted to achieve a high-grade mortality (meaning ≥90% mortality in the first 48-72 h) by ligating 75% of cecum. Mice were anesthetized with 100 mg/kg ketamine (Imalgéne 1000, Merial) and 10 mg/kg xylazine (Rompun, Bayer) subsequently resuscitated with 1 mL saline serum intraperitoneally (i.p.). To mitigate pain effects, 0.05 mg/kg/12 h Buprenorphin was administered subcutaneously. […] Daily weight loss monitoring (usually was of 10-15% in the first 48 h post-CLP) allowed exclusion of animals not undergoing clinical sepsis.
The survival data were represented in Kaplan-Meier graphs and analysed by the Log-Rank χ^2 test. Statistical significant differences (P<0.01) were determined by 2-tailed non parametric Mann-Whitney test.

[5] = prophylactic (−1 h) 1.25 mg/kg i.p., FIG. 1D
[6] = therapeutic (+1 h) 1.25 mg/kg i.p., FIG. 2D
[7] = prophylactic (−1 h) 1.25 mg/kg i.p., +4 h, +20 h post-CLP, FIG. 1C
[8] = therapeutic (+1 h) 1.25 mg/kg i.p., 4 and 20 h post-CLP, FIG. 2C
[9] = single dose 1.25 mg/kg i.p. 1 h before (−1 h) CLP induction, FIG. 1A

B1: rshCD6: recombinantly obtained soluble human CD6 ectodomain (SEQ ID NO: 1) (protein, listed as Homo sapiens)
chain: DQLNTSSAESELWEPGERLPVRLTNGSSSCSGTVEVRLEASWEPACGALWDSRAAEAVCRALGCGGAEAASQLAPPTPELPPPPAAGNTSVAANATLAGAPALLCSGAEWRLCEVVEHACRSDGRRARVTCAENRALRLVDGGGACAGRVEMLEHGEWGSVCDDTWDLEDAHVVCRQLGCGWAVQALPGLHFTPGRGPIHRDQVNCSGAEAYLWDCPGLPGQHYCGHKEDAGVVCSEHQSWRLTGGADRCEGQVEVHFRGVWNTVCDSEWYPSEAKVLCQSLGCGTAVERPKGLPHSLSGRMYYSCNGEELTLSNCSWRFNNSNLCSQSLAARVLCSASRSLHNLSTPEVPASVQTVTIESSVTVKIENKESR
[1]
  maximal plasma levels achieved via i.v. versus via i.p.: higher
[1]; ip
  time of decrease to nearly basal plasma levels: ≤ 6 h
  time of maximal rshCD6 plasma levels: 3 h
[1]; iv
  time of decline to nearly basal plasma levels: ≤ 6 h
  time of maximal and sustained plasma levels: 1 to 3 h
[2]
  mortality: significantly reduces
  serum levels of pro-inflammatory cytokines (IL-1β, IL-6 and TNF-α): significantly reduces
Bacterial load; [5]
  bacterial load from blood compared to saline-treated group: lowered
  bacterial load from kidney compared to saline-treated group: lowered
  bacterial load from spleen compared to saline-treated group: lowered
Bacterial load; [6]
  bacterial load (cfu) from blood with regard to saline-treated group: lower cfu
  bacterial load (cfu) from kidney with regard to saline-treated group: lower cfu
  bacterial load (cfu) from spleen with regard to saline-treated group: lower cfu
[3]; [7]
  plasma level of IL-1β compared to saline-treated group: significantly lowered
  plasma level of IL-6 compared to saline-treated group: significantly lowered
  plasma level of IL-10 compared to saline-treated group: higher levels
  plasma level of TNF-α compared to saline-treated group: significantly lowered
[3]; [8]
  plasma level of IL-1β compared with saline-treated group: lower pro-inflammatory cytokine levels, which reached statistical significance
  plasma level of IL-6 compared with saline-treated group: lower pro-inflammatory cytokine levels, which reached statistical significance
  plasma level of IL-10 compared with saline-treated group: no differences observed
  plasma level of TNF-α compared with saline-treated group: lower pro-inflammatory cytokine levels
LPS-induced septic shock
  lethal effects caused by LPS-induced septic shock: counteracts the lethal effects
[4]; i.p. 1 h before CLP, FIG. 1B
  prophylactic dose giving statistical significant results on survival: above 0.625 mg/kg
  prophylactic dose reaching maximal efficacy on survival: 2.5 mg/kg
[4]; mice
  optimal rshCD6 dose in mice: 1.25 to 2.50 mg/kg
[4]; repeated dosage 1.25 mg/kg i.p. at +1 h, +3 h and +6 h post-CLP, FIG. 2B
  survival: 26.32%
[4]; [9]
  survival: 47.06%
[4]; single dose 1.25 mg/kg i.v. at +1 h post-CLP, FIG. 3B
  survival: 30%
[4]; single dose 1.25 mg/kg i.v. at +3 h post-CLP, FIG. 3B
  survival: 20%
[4]; single dose 1.25 mg/kg i.v. at +6 h post-CLP, FIG. 3B
  survival: 40%
[4]; single infusion 1.25 mg/kg i.p. at +1 h post-CLP, FIG. 2A
  survival: 29.03%
[4]; single infusion 1.25 mg/kg i.p. at +3 h post-CLP, FIG. 2A
  survival: 14.28%
[4]; single infusion 1.25 mg/kg i.p. at +6 h post-CLP, FIG. 2A
  survival: 17.65%

B2: rshCD5: purified recombinant soluble human CD5 protein, used as comparison protein (protein, UniProt P06127 25-372, looked up)
extracellular domain: RLSWYDPDFQARLTRSNSKCQGQLEVYLKDGWHMVCSQSWGRSSKQWEDPSQASKVCQRLNCGVPLSLGPFLVTYTPQSSIICYGQLGSFSNCSHSRNDMCHSLGLTCLEPQKTTPPTTRPPPTTTPEPTAPPRLQLVAQSGGQHCAGVVEFYSGSLGGTISYEAQDKTQDLENFLCNNLQCGSFLKHLPETEAGRAQDPGEPREHQPLPIQWKIQNSSCTSLEHCFRKIKPQKSGRVLALLCSGFQPKVQSRLVGGSSICEGTVEVRQGAQWAALCDSSSARSSLRWEEVCREQQCGSVNSYRVLDAGDPTSRGLFCPHQKLSQCHELWERNSYCKKVFVTCQDPNP
modifications: extracellular domain
[4]; [9]
  survival: 11.11%
